According to patent US20200368361A1:

What was measured:
[1] = molecular target: His9-hMSR1, human MSR1 extracellular domain with an N-terminal 9-Histidine tag (human) (UniProt P21757); assay: competition ELISA on coated His9-hMSR1; competitor Ac-LDL; antibody 100 nM
[2] = molecular target: His9-hMSR1, human MSR1 extracellular domain with an N-terminal 9-Histidine tag (human) (UniProt P21757); assay: competition ELISA on coated His9-hMSR1; competitor Ox-LDL 10 nM; antibody 1 µM
[3] = molecular target: His9-hMSR1, human MSR1 extracellular domain with an N-terminal 9-Histidine tag (human) (UniProt P21757); assay: competition ELISA on coated His9-hMSR1; competitor biot-AGE-BSA; antibody 300 nM
[4] = molecular target: human MSR1 endogenously expressed on PMA-differentiated THP-1 cells (human) (UniProt P21757); assay: cell-based or functional assay
[5] = molecular target: human MSR1 endogenously expressed on PMA-differentiated THP-1 cells (human) (UniProt P21757); assay: imaging of PMA-differentiated THP-1 cells, 10 ug/mL antibody, Alexa 488 secondary
[6] = molecular target: full length monkey MSR1 on HEK293.mfMSR1 cells (Macaca fascicularis); assay: ECL cell binding, HEK293.mfMSR1
[7] = molecular target: full length human MSR1 with a C-terminal Myc tag on HEK293.Myc.hMSR1 cells (human) (UniProt P21757); assay: ECL cell binding, HEK293.Myc.hMSR1
[8] = molecular target: endogenously expressed human MSR1 on PMA-treated THP-1 cells (human) (UniProt P21757); assay: ECL cell binding, PMA-treated THP-1
Chain of endogenously expressed human MSR1 on PMA-treated THP-1 cells (human) (P21757 whole entry): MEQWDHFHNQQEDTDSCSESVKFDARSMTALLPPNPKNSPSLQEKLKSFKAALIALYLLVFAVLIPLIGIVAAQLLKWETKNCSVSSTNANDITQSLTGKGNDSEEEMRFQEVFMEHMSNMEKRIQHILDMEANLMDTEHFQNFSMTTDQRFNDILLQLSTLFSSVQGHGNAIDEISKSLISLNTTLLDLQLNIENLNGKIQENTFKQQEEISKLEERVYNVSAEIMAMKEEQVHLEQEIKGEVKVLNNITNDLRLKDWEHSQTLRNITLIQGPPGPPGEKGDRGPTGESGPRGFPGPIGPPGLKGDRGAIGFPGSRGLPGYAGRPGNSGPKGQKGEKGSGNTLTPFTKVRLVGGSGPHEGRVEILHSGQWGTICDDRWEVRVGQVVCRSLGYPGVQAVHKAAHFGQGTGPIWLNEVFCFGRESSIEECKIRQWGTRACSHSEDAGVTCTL

Chain of His9-hMSR1, human MSR1 extracellular domain with an N-terminal 9-Histidine tag (human) (P21757 other isoform, or with tags, fused parts or gaps): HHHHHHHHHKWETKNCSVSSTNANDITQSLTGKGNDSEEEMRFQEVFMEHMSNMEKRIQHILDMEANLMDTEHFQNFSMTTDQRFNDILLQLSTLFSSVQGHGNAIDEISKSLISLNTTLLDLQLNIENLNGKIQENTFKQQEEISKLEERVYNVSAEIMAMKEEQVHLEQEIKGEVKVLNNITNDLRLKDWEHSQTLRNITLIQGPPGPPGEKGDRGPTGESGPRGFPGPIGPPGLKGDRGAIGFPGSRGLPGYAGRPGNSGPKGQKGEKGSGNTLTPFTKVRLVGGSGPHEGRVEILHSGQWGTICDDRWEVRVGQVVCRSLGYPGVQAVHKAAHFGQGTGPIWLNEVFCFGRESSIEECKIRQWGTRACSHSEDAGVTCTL
Chain of human MSR1 endogenously expressed on PMA-differentiated THP-1 cells (human) (P21757 whole entry): as the sequence (P21757 whole entry) above
Chain of full length monkey MSR1 on HEK293.mfMSR1 cells (Macaca fascicularis) (chain, as listed by the source): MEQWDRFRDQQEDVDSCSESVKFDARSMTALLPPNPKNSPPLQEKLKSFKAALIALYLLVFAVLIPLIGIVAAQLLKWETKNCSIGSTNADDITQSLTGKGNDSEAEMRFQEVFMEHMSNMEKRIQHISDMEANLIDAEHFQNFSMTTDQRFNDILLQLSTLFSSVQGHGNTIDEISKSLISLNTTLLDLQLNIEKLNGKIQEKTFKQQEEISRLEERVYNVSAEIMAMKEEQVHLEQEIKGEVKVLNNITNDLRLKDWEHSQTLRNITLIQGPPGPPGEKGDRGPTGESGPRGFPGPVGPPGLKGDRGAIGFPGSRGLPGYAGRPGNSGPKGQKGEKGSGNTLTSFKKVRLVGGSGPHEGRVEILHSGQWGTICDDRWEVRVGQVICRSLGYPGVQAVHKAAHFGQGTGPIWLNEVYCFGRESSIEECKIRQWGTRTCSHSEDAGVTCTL
Chain of full length human MSR1 with a C-terminal Myc tag on HEK293.Myc.hMSR1 cells (human) (P21757 whole entry): as the sequence (P21757 whole entry) above

Substance | % Blocking [1] | % Blocking [2] | % Blocking [3] | binding signal ratio to isotype control (11 nM) [6] | binding signal ratio to isotype control (11 nM) [7] | binding signal ratio to isotype control (11 nM) [8] | other results
mIgG1 isotype control (competition ELISA of Table 20) (antibody) | -4% | 16% | 7% | – | – | – | –
Isotype control (internalization assay of Table 19) (antibody) | – | – | – | – | – | – | Total Internalized RFU [4]: 1.7e+06 RFU; Total Binding at 4° C. [5]: 186000 RFU; Total Binding at 37° C. [5]: 1.09e+06 RFU
hIgG1 Isotype Control (antibody) | – | – | – | 1 fold | 1 fold | 1 fold | –

Now from value to substance, other results behind:

% Blocking [1] | % Blocking [2] | % Blocking [3] | binding signal ratio to isotype control (11 nM) [6] | binding signal ratio to isotype control (11 nM) [7] | binding signal ratio to isotype control (11 nM) [8] | Substance | other results
-8% | 3% | 4% | – | – | – | hIgG1 isotype control (competition ELISA of Table 20) (antibody) | –
– | – | – | 1 fold | 1 fold | 1 fold | mIgG Isotype Control (antibody) | –
